# Data reported in US20240327497A1.
# Values joined by “and” are separate entries in the source; they are usually repeats but may differ in a detail not shown here. Identical values can stand only once.
# How the values were obtained:
# [1] = target: canine FcRn (FcRn large subunit with canine beta-2-microglobulin) (canine); assay: SPR pH 5.5, SASA-Fc captured on BSA, FcRn 200 nM
# [2] = target: canine FcRn (FcRn large subunit with canine beta-2-microglobulin) (canine); assay: SPR pH 5.5, SASA-Fc captured on BSA, FcRn 400 nM
# [3] = target: canine FcRn (FcRn large subunit with canine beta-2-microglobulin) (canine); assay: SPR pH 6.0, IgG coupled to CM5, FcRn 200-3200 nM
# [4] = target: canine FcRn (FcRn large subunit with canine beta-2-microglobulin) (canine); assay: SPR pH 5.9, IgG coupled to C1 chip, steady state fit
# [5] = target: canine FcRn (FcRn large subunit with canine beta-2-microglobulin) (canine); assay: SPR pH 5.5, SASA-Fc captured on BSA, FcRn 200 nM; remark: listed apart in the source
# [6] = target: canine FcRn (FcRn large subunit with canine beta-2-microglobulin) (canine); assay: SPR pH 5.5, SASA-Fc captured on BSA, FcRn 200 nM; remark: listed apart in the source
# [7] = target: canine FcRn (FcRn large subunit with canine beta-2-microglobulin) (canine); assay: SPR pH 5.5, SASA-Fc captured on BSA, FcRn 200 nM; remark: listed apart in the source
# [8] = target: canine FcRn (FcRn large subunit with canine beta-2-microglobulin) (canine); assay: SPR pH 5.5, SASA-Fc captured on BSA, FcRn 200 nM; remark: listed apart in the source
# [9] = target: canine FcRn (FcRn large subunit with canine beta-2-microglobulin) (canine); assay: SPR pH 5.5, SASA-Fc captured on BSA, FcRn 200 nM; remark: listed apart in the source
# [10] = target: canine FcRn (FcRn large subunit with canine beta-2-microglobulin) (canine); assay: SPR pH 5.5, SASA-Fc captured on BSA, FcRn 400 nM; average of 12 wild-type runs
# [11] = target: canine FcRn (FcRn large subunit with canine beta-2-microglobulin) (canine); assay: SPR pH 5.5, SASA-Fc captured on BSA, FcRn 200 nM; remark: listed apart in the source
# [12] = target: canine FcRn (FcRn large subunit with canine beta-2-microglobulin) (canine); assay: SPR pH 6.0, SASA-Fc captured on BSA, FcRn 200 nM
# [13] = target: canine FcRn (FcRn large subunit with canine beta-2-microglobulin) (canine); assay: SPR pH 6.0, SASA-Fc captured on BSA, FcRn 100-800 nM
# [14] = target: canine FcRn (FcRn large subunit with canine beta-2-microglobulin) (canine); assay: SPR pH 5.5, SASA-Fc captured on BSA, FcRn 100-800 nM
# [15] = target: canine FcRn (FcRn large subunit with canine beta-2-microglobulin) (canine); assay: SPR pH 5.5, SASA-Fc captured on BSA, FcRn 200 nM; remark: listed apart in the source
# [16] = target: canine FcRn (FcRn large subunit with canine beta-2-microglobulin) (canine); assay: SPR pH 5.5, SASA-Fc captured on BSA, FcRn 200 nM; remark: listed apart in the source
binder,measurement,setting,value
"canine IgGB Fc (CH2-CH3) E380A with N-terminal SASA tag (Fc fusion, part only; not given: SASA tag, not shown: another chain or arm of the molecule; small tags and cut ends) Fc: APEMLGGPSVFIFPPKPKDTLLIARTPEVTCVVVDLDPEDPEVQISWFVDGKQMQTAKTQPREEQFNGTYRVVSVLPIGHQDWLKGKQFTCKVNNKALPSPIERTISKARGQAHQPSVYVLPPSREELSKNTVSLTCLIKDFFPPDIDVAWQSNGQQEPESKYRTTPPQLDEDGSYFLYSKLSVDKSRWQRGDTFICAVMHEALHNHYTQESLSHSPGK",Kd,[1],1320 nM and 1570 nM
same,koff,[1],0.223 s⁻¹ and 0.239 s⁻¹
same,kon,[1],168000 M⁻¹ s⁻¹ and 152000 M⁻¹ s⁻¹
same,Kd,[2],618 nM and 747 nM
same,WT KD Avg/Variant KD,[2],0.76 and 0.92
same,koff,[2],0.369 s⁻¹ and 0.18 s⁻¹
same,kon,[2],598000 M⁻¹ s⁻¹ and 241000 M⁻¹ s⁻¹
"anti-NGF canine IgGB antibody, Fc variant A426H + N434R (antibody, part only; not given: Anti-NGF variable domains, not shown: another chain or arm of the molecule; small tags and cut ends) Fc: APEMLGGPSVFIFPPKPKDTLLIARTPEVTCVVVDLDPEDPEVQISWFVDGKQMQTAKTQPREEQFNGTYRVVSVLPIGHQDWLKGKQFTCKVNNKALPSPIERTISKARGQAHQPSVYVLPPSREELSKNTVSLTCLIKDFFPPDIDVEWQSNGQQEPESKYRTTPPQLDEDGSYFLYSKLSVDKSRWQRGDTFICHVMHEALHRHYTQESLSHSPGK",Kd,[3],2480 nM
same,koff,[3],0.264 s⁻¹
same,kon,[3],107000 M⁻¹ s⁻¹
"anti-NGF canine IgGB antibody with wild-type IgGB Fc (antibody, part only; not given: Anti-NGF variable domains, not shown: another chain or arm of the molecule; small tags and cut ends) Fc: APEMLGGPSVFIFPPKPKDTLLIARTPEVTCVVVDLDPEDPEVQISWFVDGKQMQTAKTQPREEQFNGTYRVVSVLPIGHQDWLKGKQFTCKVNNKALPSPIERTISKARGQAHQPSVYVLPPSREELSKNTVSLTCLIKDFFPPDIDVEWQSNGQQEPESKYRTTPPQLDEDGSYFLYSKLSVDKSRWQRGDTFICAVMHEALHNHYTQESLSHSPGK",Kd,[4],951 nM
same,Kd,[3],3370 nM
same,koff,[3],0.385 s⁻¹
same,kon,[3],114000 M⁻¹ s⁻¹
"wild-type canine IgGB Fc (CH2-CH3) with N-terminal SASA tag (Fc fusion, part only; not given: SASA tag, not shown: another chain or arm of the molecule; small tags and cut ends) Fc: APEMLGGPSVFIFPPKPKDTLLIARTPEVTCVVVDLDPEDPEVQISWFVDGKQMQTAKTQPREEQFNGTYRVVSVLPIGHQDWLKGKQFTCKVNNKALPSPIERTISKARGQAHQPSVYVLPPSREELSKNTVSLTCLIKDFFPPDIDVEWQSNGQQEPESKYRTTPPQLDEDGSYFLYSKLSVDKSRWQRGDTFICAVMHEALHNHYTQESLSHSPGK",Kd,[5],8990 nM and 3110 nM
same,koff,[5],0.347 s⁻¹ and 0.354 s⁻¹
same,kon,[5],38700 M⁻¹ s⁻¹ and 114000 M⁻¹ s⁻¹
same,Kd,[6],1710 nM and 2660 nM
same,koff,[6],0.288 s⁻¹ and 0.326 s⁻¹
same,kon,[6],168000 M⁻¹ s⁻¹ and 123000 M⁻¹ s⁻¹
same,Kd,[7],639 nM and 692 nM
same,koff,[7],0.17 s⁻¹ and 0.171 s⁻¹
same,kon,[7],267000 M⁻¹ s⁻¹ and 247000 M⁻¹ s⁻¹
same,Kd,[8],884 nM and 862 nM
same,koff,[8],0.21 s⁻¹ and 0.218 s⁻¹
same,kon,[8],237000 M⁻¹ s⁻¹ and 253000 M⁻¹ s⁻¹
same,Kd,[9],955 nM and 1310 nM
same,koff,[9],0.181 s⁻¹ and 0.209 s⁻¹
same,kon,[9],190000 M⁻¹ s⁻¹ and 159000 M⁻¹ s⁻¹
same,Kd,[10],566 nM
same,Kd,[11],1010 nM and 673 nM
same,koff,[11],0.195 s⁻¹ and 0.297 s⁻¹
same,kon,[11],194000 M⁻¹ s⁻¹ and 442000 M⁻¹ s⁻¹
same,Kd,[12],939 nM and 999 nM
same,koff,[12],0.14 s⁻¹ and 0.144 s⁻¹
same,kon,[12],149000 M⁻¹ s⁻¹ and 144000 M⁻¹ s⁻¹
same,Kd,[1],1560 nM and 754 nM
same,koff,[1],0.179 s⁻¹ and 0.182 s⁻¹
same,kon,[1],115000 M⁻¹ s⁻¹ and 242000 M⁻¹ s⁻¹
same,Kd,[13],1820 nM
same,koff,[13],0.417 s⁻¹
same,kon,[13],230000 M⁻¹ s⁻¹
same,Kd,[14],3150 nM
same,koff,[14],0.527 s⁻¹
same,kon,[14],168000 M⁻¹ s⁻¹
same,Kd,[15],502 nM and 784 nM
same,koff,[15],0.169 s⁻¹ and 0.207 s⁻¹
same,kon,[15],336000 M⁻¹ s⁻¹ and 264000 M⁻¹ s⁻¹
same,Kd,[16],2050 nM and 2990 nM
same,koff,[16],0.31 s⁻¹ and 0.315 s⁻¹
same,kon,[16],151000 M⁻¹ s⁻¹ and 105000 M⁻¹ s⁻¹
